Measured values: article doi:10.1101/2023.11.21.568018 (bioRxiv, 2023)
Numbering of substitutions follows the chain as printed. Names and notes keep the numbering of the source. Values belong to the binder of their own block, whether it stands above or below them.

Target: phospho-NEDD8 (human (cDNA from HEK393T cells), UniProt Q15843 1-76, phosphoserine at 65)
Experiment: crystal structure

- binding result: binds
B1: human Parkin R0RBR (141-465) (domain or fragment)
chain: SIYNSFYVYCKGPCQRVQPGKLRVQCSTCRQATLTLTQGPSCWDDVLIPNRMSGECQSPHCPGTSAEFFFKCGAHPTSDKETSVALHLIATNSRNITCITCTDVRSPVLVFQCNSRHVICLDCFHLYCVTRLNDRQFVHDPQLGYSLPCVAGCPNSLIKELHHFRILGEEQYNRYQQYGAEECVLQMGGVLCPRPGCGAGLLPEPDQRKVTCEGGNGLGCGFAFCRECKEAYHEGECSAVFEASGTTTQAYRVDERAAEQARWEAASKETIKKTTKPCPRCHVPVEKNGGCMHMKCPQPQCRLEWCWNCGCEWNRVCMGDHWFDV

- binding result: binds
B2: human Parkin R0RBR K211N (141-465) (domain or fragment)
chain: B1 chain with K71N
